Substitutions are numbered along the chain they refer to.

One test addresses T1, E6APR626A (Homo sapiens, UniProt Q05086, R649A).
T1 construct: made in house; host or cells: E. coli
T1 sequence (Q05086 1-872 isoform Q05086-3 R646A): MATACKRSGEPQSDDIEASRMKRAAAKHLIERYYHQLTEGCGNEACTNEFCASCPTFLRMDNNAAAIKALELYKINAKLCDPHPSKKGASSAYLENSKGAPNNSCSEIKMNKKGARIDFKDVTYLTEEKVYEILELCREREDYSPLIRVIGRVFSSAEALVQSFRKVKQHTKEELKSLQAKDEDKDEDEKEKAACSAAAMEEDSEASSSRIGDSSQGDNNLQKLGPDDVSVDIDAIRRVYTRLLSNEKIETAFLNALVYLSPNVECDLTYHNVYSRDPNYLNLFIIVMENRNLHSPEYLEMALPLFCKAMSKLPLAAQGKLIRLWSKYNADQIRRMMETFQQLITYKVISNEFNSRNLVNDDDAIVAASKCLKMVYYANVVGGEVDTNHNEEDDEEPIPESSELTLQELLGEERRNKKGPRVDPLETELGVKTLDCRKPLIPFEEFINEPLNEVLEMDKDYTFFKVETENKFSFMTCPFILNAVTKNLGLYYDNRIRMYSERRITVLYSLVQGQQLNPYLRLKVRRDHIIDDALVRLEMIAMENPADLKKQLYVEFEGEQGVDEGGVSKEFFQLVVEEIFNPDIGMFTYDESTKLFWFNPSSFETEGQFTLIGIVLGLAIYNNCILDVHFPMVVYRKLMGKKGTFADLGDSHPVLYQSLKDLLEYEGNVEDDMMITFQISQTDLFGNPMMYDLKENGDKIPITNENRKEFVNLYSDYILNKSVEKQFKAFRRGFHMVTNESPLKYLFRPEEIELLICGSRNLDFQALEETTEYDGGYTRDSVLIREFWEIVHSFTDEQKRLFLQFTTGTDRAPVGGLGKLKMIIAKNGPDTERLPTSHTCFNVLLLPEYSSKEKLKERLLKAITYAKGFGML
The experiment in a line: E6 rescue of 125I-polyubiquitin chain formation by E6APR626A. The test is classed as biochemical. The note with it: 20 nM E6 protein. How it is done: (§1) E6AP-catalyzed ^125I-Ubiquitin Conjugation Assay: The E3 ligase activity of recombinant E6AP ligase was quantitated in kinetic assays under initial velocity conditions (Ronchi et al., (2013) J. Biol. Chem. 288, 10349-10360, Ronchi & Haas (2012) Methods Mol. Biol. 832: 197-218). Rates of E6AP-catalyzed ^125I-polyubiquitin chain formation were measured at 37° C. in incubations of 25-μl final volume containing 50 mM Tris-HCl (pH 7.5), 1 mM ATP, 10 mM MgCl2, 1 mM DTT, 10 mM creatine phosphate, 1 IU of creatine phosphokinase, 5 μM ^125I-ubiquitin (approximately 1.5×10^4 cpm/pmol), 50 nM human Uba1, and the indicated concentrations of UbcH7 and E6AP ligase (Siepmann et al., (2003) J. Biol. Chem. 278: 9448-9457; Baboshina et al., (2001) J. Biol. Chem. 276: 39428-39437). […]
(§2) Polyubiquitin chain formation was measured by excising lanes between the top of the resolving gel and the top of the stacker gel, representing anchored and free ^125I-polyubiquitin chains, respectively, and quantitating associated ^125I-ubiquitin by γ-counting. Absolute rates of ^125I-polyubiquitin chain formation were calculated from the associated radioactivity and the corrected specific radioactivity for ^125I-ubiquitin. Datum points represent single assay determinations, and complete data sets were evaluated by non-linear regression analysis using GraFit version 5.0 (Erithicus). […]

The next test has as its target T2, E6APD543A (Homo sapiens, UniProt Q05086, D566A).
T2 construct: made in house; host or cells: E. coli
T2 sequence (Q05086 1-872 isoform Q05086-3 D563A): T1 sequence (Q05086 1-872 isoform Q05086-3 R646A) with D563A, A646R
As to the kind of experiment: E6 rescue of 125I-polyubiquitin chain formation by E6APD543A. The note with it: 20 nM E6 protein. The test is classed as biochemical. The method, then: as §1, §2

B1: E6 protein: recombinant human papilloma virus 16 E6 protein, 158 amino acids (protein)
chain: MHQKRTAMFQDPQERPRKLPQLCTELQTTIHDIILECVYCKQQLLRREVYDFAFRDLCIVYRDGNPYAVCDKCLKFYSKISEYRHYCYSLYGTTLEQQYNKPLCDLLIRCINCQKPLCPEEKQRHLDKKQRFHNIRGRWTGRCMSCCRSSRTRRETQL
In the test with E6APR626A, B1 gave an increase in rate of 13 fold. Besides, the effect on rate result with E6APD543A is “no enhancement in rate”.

Values taken from US9725708B2, “Methods of modulating ubiquitin ligase activity” (Board of Supervisors of Louisiana State University and …, priority 2012, dated 2017).
